Results on one molecule are retold here after article doi:10.1101/2020.09.30.318972 (bioRxiv, 2020).

The test deals with soluble prefusion-stabilized trimeric SARS-CoV-2 spike protein (SARS-CoV-2, Wuhan-Hu-1 (MN908947.3), UniProt P0DTC2, stabilised). Description: cryo-EM structure.

B1: LY-CoV555 Fab (Fab, V domains shown)
VH: QVQLVQSGAEVKKPGSSVKVSCKASGGTFSNYAISWVRQAPGQGLEWMGRIIPILGIANYAQKFQGRVTITADKSTSTAYMELSSLRSEDTAVYYCARGYYEARHYYYYYAMDVWGQGTAVTVSS
VL: not shown
B1: the binding result was “binds”.
